Experimental data from the nanobody polyreactivity screen of Harvey et al. (2022).

Experiment: yeast display, Sf9 membrane polyspecificity reagent, FACS + sequencing; frameworks hold sequencing errors
Summary of the method: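 In a synthetic yeast display library (Saccharomyces cerevisiae BJ5465), nanobody expression was induced with galactose for 36–48 hours. FACS gates were set low and high (top ~1%) using anti-HA fluorescence for expression and streptavidin fluorescence for binding of the Sf9 membrane reagent. Each polyreactivity label is drawn from the gate of origin.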

Sequence	polyreactivity (PSR sort gate)
QVQLVESGGGLVQAGGSLRLSCAASGFTFKYYDMGWYRQAPGKERELVAGITWDGGSTTYSDSVKGRFTISRDNAKNTVYLQMNSLKPEDTAVYYCAADVRYTSPFYYYLGAYYYWGQGTQVTVSS	low polyreactivity
QVQLVESGGGLVQAGGSLRLSCAASGFTFLINAMGWYRQAPGKERELVAAIRSGGSTNYADSVKGRFTISRDNAKNTVYLQMNSLKPEDTAVYYCAARRYYPYKYRYGYWGQGTQVTVSS	high polyreactivity
QVQLVESGGGLVQAGGSLRLSCAASGFTFLIYAMGWYIQAPGKERELVADISYNDDITYYADSVKGRFTISRDNAKNTVYLQMNSLKPEDTAVYYCAADYVNPELDYWGQGTQVTVSS	low polyreactivity
QVQLVESGGGLVQAGGSLRLSCAASGFTFLNNTMGWYRQAPGKERELVAAITSSGDRTYYADSVKGRFTISRDNAKNTVYLQMNSLKPEDTAVYYCAADWAYYVASYLYYTFDYWGQGTQVTVSS	low polyreactivity
QVQLVESGGGLVQAGGSLRLSCAASGFTFLNYDMGWYRQAPGKERELVAAISRSDGITYYADSVKGRFTISRDNAKNSVYLHMNSLKPEDTAVYYCAAERDTPVGVPGYEYYYWGQGTQVTVSS	high polyreactivity
QVQLVESGGGLVQAGGSLRLSCAASGFTFLRNAMGWYRQAPGKERELVAAINRDGGRTYYADSVKGRFTISRDNAKNTVYLQMNSLKPADTAVYYCATTSQATSGPRRKLYYYWGQGTQVTVSS	high polyreactivity
QVQLVESGGGLVQAGGSLRLSCAASGFTFLRNAMGWYRQAPGKERELVAAISRSDRTNYADSVKGRFTISRDNAKNTFYLQMNSLKPEDTAVYYCNARHSYWTGRRVTDDYDYWGQGTQVTVSS	high polyreactivity
QVQLVESGGGLVQAGGSLRLSCAASGFTFLTYLMGWYRQAPGKERELVASISGSGGTTYYADSVKGRFTISRDNAKNTVYLQMNSLKPEDTAVYYCAASGRYRRYYKFNYWGQGTQVTVSS	high polyreactivity
QVQLVESGGGLVQAGGSLRLSCAASGFTFLVNAMGWYRLAPGKERELVAAISRIGASTYYADSVKVRFTISRDNAKNTVYIQMNSLKPQDTAVNYCAARPWANTYPRRRYDYWGQGTQVTVSS	high polyreactivity
QVQLVESGGGLVQAGGSLRLSCAASGFTFLVYAMGWYRQAPGKERELVAGITSGGRTYYADSVKGRFTISRDNAKNTVYLQMNSLKPEDTAVYYCAASRWAYEMNYWGQGSQVTVSS	high polyreactivity
QVQLVESGGGLVQAGGSLRLSCAASGFTFLVYVMGWYRQAPGKVRELVAAISSCGSSTYYADSVKGRFTISRDNAKNTVYLQMNSLKPEDTAVYYCAAAPYYSHEYDYWGQGTQVTVSS	low polyreactivity
QVQLVESGGGLVQAGGSLRLSCAASGFTFLWNAMGWYRQAPGKERELVAAISSSGGRTYYADSVKGRFTISRDNAKNTVYLLMNSLKPEDTAVYYCARVYSSPYNFGYWGQGTQVTVSS	low polyreactivity
QVQLVESGGGLVQAGGSLRLSCAASGFTFLYNAMGWYRQAPGKERELVAAIDSGGNTNYADSVKGRFTISRDNAKITVYLQLNSLKPEDTAVYYCAADVVSGGQGTADYDYWGQGTQVTVSS	low polyreactivity
QVQLVESGGGLVQAGGSLRLSCAASGFTFLYNAMGWYRQAPGKERELVAAIDSGGNTNYADSVKGRFTISRDNAKNTVYLQMNSLKPEDTAVYYCAADVVSVGQGTADYDYWGQGTQVTVSS	low polyreactivity
QVQLVESGGGLVQAGGSLRLSCAASGFTFLYNAMGWYRQAPGKERELVASINSGGSTNYADSVKGRFTISRDKSKNTVYLQMNRLKPEDTAVYYCNAKRHVRKGDYGGQGTQVTVSS	low polyreactivity
QVQLVESGGGLVQAGGSLRLSCAASGFTFLYNVMGWYRQAPGKERELVAAISQSGTDTYYADSVKGRFTISRDNAKYTVYLQMNSLKPEDTAVYYCAVDVYFYYRHYGYWGQGTQVTVSS	low polyreactivity
QVQLVESGGGLVQAGGSLRLSCAASGFTFLYYAMGWYRQAPGKEREVVAAISSGGSTYYADSVKGRFTISRDNAKNTVYLQMNSLKPEDTAVYYCNVRYTRNRWQYDYWGQGSQVTVSS	high polyreactivity
QVQLVESGGGLVQAGGSLRLSCAASGFTFLYYTMGWYRQAPGKERELVAAISSGGRTTYADSVKGRFTISRDNAKNTVYLQMNSLKQEDTAVYYCAARYRTLDGEVDYWGQGTQVTVSS	high polyreactivity
QVQLVESGGGLVQAGGSLRLSCAASGFTFNDYAMGWYRQAPGKERELVAAIDWSGGRTYYADSVKGRFTISRDNAKNTVYLQMNSLKPEDTAVYYCAAVLYSRLYLYRLDYWGQGTQVTVSS	low polyreactivity
QVQLVESGGGLVQAGGSLRLSCAASGFTFNFYAMRWYRQAPGKERELVAAITASGVRRYYADSVKGRFTISRDNAKNTVYLQMNSLKPEDTAVYYCNTYMYRNKSGYDYWGQGTQVTVSS	high polyreactivity
QVQLVESGGGLVQAGGSLRLSCAASGFTFNKYAMGWYRQAPGKERELVAAISSSGGSTRYADSVKGRFTISRDNAKNTVYLQMNSLKPEDTAVYYCAVYVTRDSGWWLYDYWGQGTQVTVSS	high polyreactivity
QVQLVESGGGLVQAGGSLRLSCAASGFTFNNNAMGWYRQAPGKERELVAAITSSGGSTRYADSVKGRFTISRDNAKNTVYLQMNSLKPEDTAVYYCNAARQRKYSNWYDYWGQGTQVTVSS	high polyreactivity

Sequence	polyreactivity (PSR sort gate)
QVQLVESGGGLVQAGGSLRLSCAASGFTFNNYAMGWYRQAPGKERELVAAISSGAGTYYADSVKGRFTISRDNAKNTVYLQMNSLKPEDTAVYYCNASLKYQGLTRITYRDDYWGQGTQVTVSS	low polyreactivity
QVQLVESGGGLVQAGGSLRLSCAASGFTFNRNDMGWYRQAPGKERELVAAISTSGGRTYYADSVKGRFTISRDNAKNTVYLQMNSLKPEDTAVYYCAADGIYPVGVDYWGQGTQVTVSS	high polyreactivity
QVQLVESGGGLVQAGGSLRLSCAASGFTFNRTAMGWYRQAPGKERELVAAITRRGGSTYYADSVKGRFTISRDNAKNTVYLQMNSLKPEDTAVYYCAARRGAGDGYWGQGTQVTVSS	high polyreactivity
QVQLVESGGGLVQAGGSLRLSCAASGFTFNRYAMGWYRQAPGKERELVAAISWSGTSTYYADSVKGRFTISRDNAKNTVYLQMNSLKQEDTAVYYCAARVKGQWNTYDYWGQGTQVTVTS	high polyreactivity
QVQLVESGGGLVQAGGSLRLSCAASGFTFNRYAMGWYRQAPGKERELVATITSGGNTYYADSVKGRFTISRDNAKNTVYLQMNSLKPEDTAVYYCNKRGWYSVYRRDFWGQGTQVTVSS	high polyreactivity
QVQLVESGGGLVQAGGSLRLSCAASGFTFNSYAMGWYRQAPGKERELVAAISSSGGRTYYADSVKGRFTISRDNAKNTVYFQMNSLKPEDTAVYYCNAVLVSYYSVGYDYWGQGSQVTVSS	high polyreactivity
QVQLVESGGGLVQAGGSLRLSCAASGFTFNSYAMGWYRQAPGKERELVAAITSSGGRTYYADSVKGRFTISRDNAKNTVYLQMNSLKPEDTAVYYCAARRGGKVATIYDYWGQGTQVTVSS	low polyreactivity
QVQLVESGGGLVQAGGSLRLSCAASGFTFNTNAMGWYRQAPGKERELVAAITSSGGSTYYADSVKGRFTISRDNAKNTVYLQMNSLKPEDTAVYYCNADVTLRLWAYYYYRYNYWGQGTQVTVSS	low polyreactivity
QVQLVESGGGLVQAGGSLRLSCAASGFTFNVYAMGWYRQAPGKERELVARITRRGGSTYYADSVKGRFTISRDNAKNTVYLQMNSLKPEDTAVYYCNADSPVVSGRGGRRSAYLNDYWGQGTKVTVSS	high polyreactivity
QVQLVESGGGLVQAGGSLRLSCAASGFTFNWYAMGWYRQAPGKERELVAAINSSGGNTYYADSVKGRFTISRDNAKNTVYLQMNSLKPEDTAVYYCAALLWGYVAFDYWGQGTQVTVSS	high polyreactivity
QVQLVESGGGLVQAGGSLRLSCAASGFTFNYNTMGWYRQAPGKERQLVAAISRSGGSTYYADSVKGRITISRDNAKNTVYLQMNSLKPEDTAVFYCAKDTYYPSSRYNRYYYWGQGTQVTVSS	high polyreactivity
QVQLVESGGGLVQAGGSLRLSCAASGFTFNYYAMGWYRQAPGKERELVAAISGRGGSTYYADSVKGRFTISRDNAKNTVYLQMNSLIPEDTAVYYCAADYWYDYYSTEYDYWGQGTQVTVSS	low polyreactivity
QVQLVESGGGLVQAGGSLRLSCAASGFTFPAYTMGWYRQAPGKERELVSAITSSGGNTYYADSVKGRFTISRDNAKNTVYLQMNSLKPEDTAVYYCSTVSVRGPSYDHVRYDYWGQGTQVTVSS	low polyreactivity
QVQLVESGGGLVQAGGSLRLSCAASGFTFPDYAMGWYRQAPGKERELVAAISSDGSTYYADSVKGRFTISRDNAKNTVYLQMNSLKPEDTAVYYCAAYVVWLYGYDYWGQGTKVTVSS	low polyreactivity
QVQLVESGGGLVQAGGSLRLSCAASGFTFPFYTMGWYRQAPGKERELVAAISRGGSTNYADSVKGRFTISRDNAKNTVYLQMNSLKPEDTAVSYCNKRYYRDLIGYYWGQGTQVTVSS	high polyreactivity
QVQLVESGGGLVQAGGSLRLSCAASGFTFPIYAMGWYRQAPGKEREFVAAITRSGVSTYYADSVKGRFTISRDNAKNTVYLQMNSLKPEDTAVYYCAARYKGRAFWMDYWGQGTQVTVSS	high polyreactivity
QVQLVESGGGLVQAGGSLRLSCAASGFTFPNAMGWYRQAPGKERELVATISSSGGSTYYADSVKGRFTISRDNAKNTVYLQMNSLKPEDTAVYYCAARTRQYWIYRAYRDDYWGQGTQVTVSS	low polyreactivity
QVQLVESGGGLVQAGGSLRLSCAASGFTFPPYAMGWYIQAPGKERELVAGISWIGSSTYYADSVKGRFTISRDNAKNTVYLQMNSLKPEDTAVYYCNARYLLFAGGRRYYWGQGTQVTVSS	high polyreactivity
QVQLVESGGGLVQAGGSLRLSCAASGFTFPRYAMGWYRQAPGKERELVAAITVGGGRTYYADSVKGRFTISRDNAKNTVYLQMNSLKPEDTAVYYCAADSHASTYDYWGQGTQVTVSS	low polyreactivity
QVQLVESGGGLVQAGGSLRLSCAASGFTFPRYAMGWYRQAPGKERELVAVITRRGGSTYYADSVKGRFTISRDNAKNTVYLQMNSLKPEDTAVYDCAASDPSNKSSRPGYSYDSDSWGQGTQVTVSS	high polyreactivity
QVQLVESGGGLVQAGGSLRLSCAASGFTFPSYTMGWYRQAPGKERELVAAISWSGGRTYYADSVKGRFTISRDNAKITVYLQKNSLKPEETAVYYCAAGYRTGGDSGDYWGQGTQVTVSS	high polyreactivity
